Measurements from article PMC6973308.

Key:
[1] = biological target: anti-HER2 (trastuzumab) heavy chain, produced alone; experiment: HPLC-MS
[2] = biological target: anti-HER2 (trastuzumab) heavy chain, produced alone; experiment: SDS-PAGE
[3] = biological target: anti-HER2 (trastuzumab) heavy chain, produced alone; experiment: SEC
[4] = biological target: anti-HER2 (trastuzumab) light chain, produced alone; experiment: SEC
[5] = biological target: anti-HER2 (trastuzumab) light chain, produced alone; experiment: SDS-PAGE

Row | stoichiometry N [1] | stoichiometry N [2] | % Area of monomer mAb (SEC-HPLC) [3] [% Area] | stoichiometry N [4] | percent of LC dimers covalently bonded (42 KDa band) [5] [%] | Substance
1 | 2 | 2 | – | – | – | anti-HER2 (trastuzumab) heavy chain, produced alone (domain or fragment)
2 | – | – | 90.1 | 2 | 55 | anti-HER2 (trastuzumab) light chain, produced alone (domain or fragment)
